Reference: patent US20200024330A1

How the values were obtained:
Assay in all cases: cell-based or functional assay
[1] = biological target: HIV-1 92RW026 envelope glycoprotein (Env) (HIV-1)
[2] = biological target: HIV-1 92RW024 envelope glycoprotein (Env) on pseudovirus (HIV-1)
[3] = biological target: HIV-1 MGRM-C-024 Env (HIV-1)
[4] = biological target: HIV-1 94UG103 envelope glycoprotein (Env) on pseudovirus (HIV-1)
[5] = biological target: HIV-1 93MW959 envelope glycoprotein (Env) on pseudovirus (HIV-1)
[6] = biological target: HIV-1 Env of pseudovirus 92BR020, clade B (HIV-1)
[7] = biological target: HIV-1 MGRM-F1-010 Env (pseudovirus) (HIV-1)
[8] = biological target: HIV-1 MGRM-C-009 Env (HIV-1)
[9] = biological target: HIV-1 MGRM-F1-004 Env (pseudovirus) (HIV-1)
[10] = biological target: HIV-1 Env of isolate MGRM-D-028 (clade D) (HIV-1)
[11] = biological target: HIV-1 MGRM-A-002 envelope glycoprotein (Env) (HIV-1)
[12] = biological target: HIV-1 MGRM-F1-017 Env (pseudovirus) (HIV-1)
[13] = biological target: HIV-1 Env of isolate MGRM-D-021 (clade D) (HIV-1)
[14] = biological target: HIV-1 APV-6 envelope protein (Env) on pseudovirus (HIV-1)
[15] = biological target: HIV-1 Env of isolate 92UG024 (HIV-1)
[16] = biological target: HIV-1 Env of isolate 92TH021 (CRF01_AE), on pseudovirus (HIV-1)
[17] = biological target: HIV-1 Env of isolate MGRM-F1-016 (subtype F), on pseudovirus (HIV-1)
[18] = biological target: HIV-1 Env of isolate MGRM-A-009 (clade A), on pseudovirus (HIV-1)
[19] = biological target: HIV-1 Env of isolate MGRM-C-026 (HIV-1)
[20] = biological target: HIV-1 Env of isolate MGRM-G-028 (HIV-1)
[21] = biological target: HIV-1 Env of isolate MGRM-AG-001 (CRF_AG), on pseudovirus (HIV-1)
[22] = biological target: HIV-1 Env of isolate MGRM-AG-008 (CRF_AG), on pseudovirus (HIV-1)
[23] = biological target: HIV-1 Env of isolate 94UG103 (HIV-1)
[24] = biological target: HIV-1 Env of isolate APV-13 (pseudovirus) (HIV-1 isolate APV-13, subtype B)
[25] = biological target: HIV-1 JR-CSF Env D474A (HIV-1 (isolate JR-CSF)) (UniProt P20871)
[26] = biological target: HIV-1 Env of isolate MGRM-AG-002 (CRF_AG), on pseudovirus (HIV-1)
[27] = biological target: HIV-1 MGRM-C-026 envelope glycoprotein (Env) on pseudovirus (HIV-1)

Sequence of 1443_C16 (PG16) (TCN-116) (antibody) (VH): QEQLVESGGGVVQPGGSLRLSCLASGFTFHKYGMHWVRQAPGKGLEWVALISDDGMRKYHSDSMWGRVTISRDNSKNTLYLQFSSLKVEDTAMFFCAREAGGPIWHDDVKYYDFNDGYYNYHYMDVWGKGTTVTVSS
Sequence of 1443_C16 (PG16) (TCN-116) (antibody) (VL): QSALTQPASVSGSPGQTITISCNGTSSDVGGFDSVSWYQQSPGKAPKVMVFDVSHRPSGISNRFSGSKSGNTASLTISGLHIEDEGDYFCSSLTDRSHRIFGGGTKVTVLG
Sequence of 5345_I01 (PGT-137) (antibody) (VH): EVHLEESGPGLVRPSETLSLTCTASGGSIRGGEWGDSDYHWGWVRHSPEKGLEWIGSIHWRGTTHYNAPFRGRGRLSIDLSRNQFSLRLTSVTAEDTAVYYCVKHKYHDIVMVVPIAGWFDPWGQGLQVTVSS
Sequence of 5345_I01 (PGT-137) (antibody) (VL): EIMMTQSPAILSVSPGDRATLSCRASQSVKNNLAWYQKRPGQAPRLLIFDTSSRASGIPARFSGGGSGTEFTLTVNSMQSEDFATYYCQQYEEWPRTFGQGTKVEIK

| Substance | IC50 (µg/ml), pseudovirus neutralization [1] [µg/mL] | IC50 (µg/ml), pseudovirus neutralization [2] [µg/mL] | IC50 [3] [µg/mL] | IC90 (pseudovirus neutralization) [4] [µg/mL] | IC50 (µg/ml), pseudovirus neutralization [5] [µg/mL] | IC50 (µg/ml), pseudovirus neutralization [6] [µg/mL] | IC50 (µg/ml), pseudovirus neutralization [7] [µg/mL] | IC50 [8] [µg/mL] | IC50 (µg/ml), pseudovirus neutralization [9] [µg/mL] | IC50 (µg/ml), pseudovirus neutralization [10] [µg/mL] | IC50 (µg/ml), pseudovirus neutralization [11] [µg/mL] | IC50 (µg/ml), pseudovirus neutralization [12] [µg/mL] | IC50 (µg/ml), pseudovirus neutralization [13] [µg/mL] | neutralization IC50 [14] [µg/mL] | IC50 [15] [µg/mL] | IC50, single-round pseudovirus neutralization [16] [µg/mL] | IC50, pseudovirus neutralization [17] [µg/mL] | IC50, single-round pseudovirus neutralization [18] [µg/mL] | IC50 [19] [µg/mL] | IC50, pseudovirus neutralization [20] [µg/mL] | also measured |
| --- | --- | --- | --- | --- | --- | --- | --- | --- | --- | --- | --- | --- | --- | --- | --- | --- | --- | --- | --- | --- | --- |
| 2F5 (antibody) | 8.63 | 8.22 | > 50 | 46.6 | > 50 | > 50 | 14.6 | > 50 | 4.31 | > 50 | > 50 | > 50 | > 50 | 0.1 |  |  |  |  |  |  |  |
| 2G12 (antibody) | 17.2 | > 50 | > 50 | > 50 | > 50 | 4.84 |  | > 50 | > 50 | > 50 | > 50 | > 50 | 23 | 5.3 |  |  |  |  |  |  |  |
| 4E10 (antibody) | 12.9 | 8.88 | 22.6 | > 50 | 4.55 | > 50 | 3.69 | 0.56 | 2.74 | 1.28 | 6.45 | 4.92 | 13.3 | 0.4 |  |  |  |  |  |  |  |
| 1443_C16 (PG16) (TCN-116) (antibody) | 0.03 | 0.08 | 0.04 | 1.59 | 0.007 | > 50 | 0.01 | > 50 | 0.43 | > 50 | 0.004 | > 50 | > 50 | 0.08 |  |  |  |  |  |  |  |
| 1495_C14 (PGC14) (antibody) | > 50 | > 50 | > 50 |  | > 50 | 4 | > 50 | > 50 | > 50 | > 50 | > 50 | > 50 | > 50 | 7.41 |  |  |  |  |  |  |  |
| 5114_A19 (PGT-128) (antibody) |  |  |  |  |  |  |  |  |  |  |  |  |  |  | > 50 | 0.01 | 1.21 | 0.005 | 0.007 | 0.008 | IC50, single-round pseudovirus neutralization [21]: 4.73 µg/mL; IC50, single-round pseudovirus neutralization [22]: 0.668 µg/mL; neutralization IC50 [23]: 0.011 µg/mL; IC50 (µg/mL) neutralization [24]: 0.008 µg/mL; Fold IC50 increase relative to wild-type [25]: 0.8 fold; IC50, single-round pseudovirus neutralization [26]: 4.99 µg/mL |
| 5136_H01 (PGT-131) (antibody) |  |  |  |  |  |  |  |  |  |  |  |  |  |  | > 50 | 0.014 | > 50 | 0.035 | 1.67 | 0.466 | IC50, single-round pseudovirus neutralization [21]: > 50 µg/mL; IC50, single-round pseudovirus neutralization [22]: > 50 µg/mL; neutralization IC50 [23]: 1.1 µg/mL; IC50 (µg/mL) neutralization [24]: 0.189 µg/mL; Fold IC50 increase relative to wild-type [25]: 1.6 fold; IC50, single-round pseudovirus neutralization [26]: > 50 µg/mL |
| 5147_N06 (PGT-130) (antibody) |  |  |  |  |  |  |  |  |  |  |  |  |  |  | > 50 | 0.009 | > 50 | 0.308 | 0.036 | 0.074 | IC50 (ug/ml), neutralizing activity [4]: 0.635 µg/mL; IC50, single-round pseudovirus neutralization [21]: > 50 µg/mL; IC50, single-round pseudovirus neutralization [22]: > 50 µg/mL; neutralization IC50 [23]: 1.4 µg/mL; IC50 (ug/ml), neutralizing activity [27]: 0.0173 µg/mL; IC50 (µg/mL) neutralization [24]: 0.052 µg/mL; Fold IC50 increase relative to wild-type [25]: 2 fold; IC50, single-round pseudovirus neutralization [26]: > 50 µg/mL |
| 5343_B08 (PGT-135) (antibody) |  |  |  |  |  |  |  |  |  |  |  |  |  |  | 0.01 | > 50 | > 50 | > 50 | 0.004 | > 50 | IC50, single-round pseudovirus neutralization [21]: > 50 µg/mL; IC50, single-round pseudovirus neutralization [22]: > 50 µg/mL; neutralization IC50 [23]: > 50 µg/mL; IC50 (µg/mL) neutralization [24]: 0.716 µg/mL; Fold IC50 increase relative to wild-type [25]: 1.2 fold; IC50, single-round pseudovirus neutralization [26]: > 50 µg/mL |
| 5345_I01 (PGT-137) (antibody) |  |  |  |  |  |  |  |  |  |  |  |  |  |  | 0.106 | > 50 | > 50 | > 50 | 0.011 | > 50 | IC50, single-round pseudovirus neutralization [21]: > 50 µg/mL; IC50, single-round pseudovirus neutralization [22]: > 50 µg/mL; neutralization IC50 [23]: > 50 µg/mL; IC50 (µg/mL) neutralization [24]: > 50 µg/mL; IC50, single-round pseudovirus neutralization [26]: > 50 µg/mL |
| b12 (antibody) | > 50 | > 50 | > 50 | 47.3 | > 50 | > 50 | > 50 | > 50 | > 50 | 0.78 | > 50 | > 50 | 5.23 | > 25 |  |  |  |  |  |  |  |
